In paper doi:10.64898/2025.12.06.692711:

Experiments:
[1] = biological target: HTkC (TK1040), face-to-face (FtF) histone from Thermococcus kodakarensis (Thermococcus kodakarensis); test: SEC-MALS
[2] = biological target: HTkC R45A (Thermococcus kodakarensis); test: SEC-MALS

Substance | stoichiometry N [1] | stoichiometry N [2]
HTkC (TK1040), face-to-face (FtF) histone from Thermococcus kodakarensis (natural protein) | 4 | –
HTkC R45A (natural protein) | – | 2
